For one sequence, Kd results are on record in paper PMC12822413.

The target of series [1] is endogenous TSHR on Graves' orbital fibroblasts (GOFs) (Homo sapiens) (UniProt P16473). Description: flow cytometry. The conditions noted are these: Flow: DPBS, 5 mM MgCl2, 4.5 g/L glucose, 0.1 mg/mL yeast tRNA, 1 mg/mL BSA, 4 C 30 min; SPR: DPBS, 5 mM Mg2+, pH 7.4, 25 C.
Series [2] has as its target TSHR on TSHR-293T cells (Homo sapiens) (UniProt P16473). Kind of series: flow cytometry. The following applies: Flow: DPBS, 5 mM MgCl2, 4.5 g/L glucose, 0.1 mg/mL yeast tRNA, 1 mg/mL BSA, 4 C 30 min; SPR: DPBS, 5 mM Mg2+, pH 7.4, 25 C. (Flow cytometry measures light scatter and fluorescence of single cells or particles in a stream.)

Chain of TSHR on TSHR-293T cells (Homo sapiens) (P16473 21-764): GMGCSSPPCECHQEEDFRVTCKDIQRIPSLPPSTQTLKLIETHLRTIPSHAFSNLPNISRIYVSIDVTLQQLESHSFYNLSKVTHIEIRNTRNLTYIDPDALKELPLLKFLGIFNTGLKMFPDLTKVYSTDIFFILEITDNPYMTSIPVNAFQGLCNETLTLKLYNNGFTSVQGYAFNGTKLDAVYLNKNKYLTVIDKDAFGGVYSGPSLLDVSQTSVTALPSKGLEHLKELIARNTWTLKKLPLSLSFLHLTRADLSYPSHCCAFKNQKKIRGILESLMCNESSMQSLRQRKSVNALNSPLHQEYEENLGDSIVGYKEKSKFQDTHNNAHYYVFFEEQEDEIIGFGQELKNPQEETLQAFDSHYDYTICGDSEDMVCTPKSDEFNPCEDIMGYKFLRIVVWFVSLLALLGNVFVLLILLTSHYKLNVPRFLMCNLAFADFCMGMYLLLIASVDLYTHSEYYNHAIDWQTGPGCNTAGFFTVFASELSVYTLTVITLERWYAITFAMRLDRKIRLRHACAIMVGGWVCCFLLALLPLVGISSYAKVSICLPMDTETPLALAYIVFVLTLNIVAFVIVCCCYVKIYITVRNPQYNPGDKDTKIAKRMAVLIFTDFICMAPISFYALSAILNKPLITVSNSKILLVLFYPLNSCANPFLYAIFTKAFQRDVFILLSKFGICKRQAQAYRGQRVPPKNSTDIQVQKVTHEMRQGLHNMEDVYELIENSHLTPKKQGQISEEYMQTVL
Chain of endogenous TSHR on Graves' orbital fibroblasts (GOFs) (Homo sapiens) (P16473 21-764): as above

By Kd is commonly meant a measure of binding affinity in units of concentration. Turning to “ACCGACCGTGCTGGACTCAGATGAACAATCGATGGAAGATTGGGTCGCACCGGCCTCTTTCACTATGAGCGAGCCTGGCG [YC3]”, the figures for the equilibrium dissociation constant (Kd) in series [1] and in series [2] were 99.2 nM and 260 nM, respectively.
